Patent US12679888B2, “IL-18 binding protein (IL-18BP) and antibodies for treating inflammatory diseases” (AB2 BIO SA, priority 2015, dated 2026)
Where a chain is given by its changes, count along the chain named. Values joined by “and” are separate entries in the source; they are usually repeats but may differ in a detail not shown here. Equal entries are not always repeated. Where two headings read alike, the source gives them in different places.

Assays:
IL-18 [1] = target: T1, IL-18 (Homo sapiens, UniProt Q14116); test: Luminex screening second step: biotinylated IL-18BP binding on IL-18 previously complexed to monoclonal antibody
T1 sequence (Q14116 37-193): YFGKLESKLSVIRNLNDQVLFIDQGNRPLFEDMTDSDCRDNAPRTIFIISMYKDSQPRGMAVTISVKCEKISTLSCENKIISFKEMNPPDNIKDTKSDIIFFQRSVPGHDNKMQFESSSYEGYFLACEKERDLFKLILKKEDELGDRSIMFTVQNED
From the text: Second step. Potential antibodies targeting IL-18 on IL-18BP binding site were rescreened in competition with IL-18BP, but not with IL-18BP fusions with Fc antibody domains, or other type of fusions, in order to prevent false antibody positive candidates due to steric hindrance created by the fused peptide. For this, monoclonal antibodies were bound to Luminex beads carrying IL-18. The complex was then exposed to biotinylated IL-18BP in order to identify interference to previously identified anti-IL-18 antibodies (see Table 7, Column #2).

[2] = target: T2, IL-18 previously complexed to IL-18BP (Homo sapiens, UniProt Q14116); test: Luminex screening third step: monoclonal antibody binding on IL-18 previously complexed to IL-18BP; settings: for fluorescence signal after binding IL-18 in the presence of IL-18BP: third screening step
T2 sequence (Q14116 37-193): T1 sequence (Q14116 37-193)
T2 sequence (O95998 31-194 partner): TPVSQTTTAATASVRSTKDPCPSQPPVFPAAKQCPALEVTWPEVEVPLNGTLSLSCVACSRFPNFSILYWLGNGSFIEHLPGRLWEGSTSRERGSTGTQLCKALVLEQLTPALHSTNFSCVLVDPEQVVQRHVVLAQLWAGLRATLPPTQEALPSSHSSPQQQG
From the text: Third step. A third screening program was undertaken with Luminex beads linked to IL-18BP and then complexed to interleukin-18, assuring the presentation of properly folded recombinant IL-18 to positive antibody candidates.

human interleukin-18 = target: T3, human interleukin-18 (Homo sapiens, UniProt Q14116); test: Luminex screening first step: monoclonal antibodies binding on IL-18; settings: IL-18 attached to Luminex beads
T3 sequence (Q14116 37-193): T1 sequence (Q14116 37-193)
From the text: Mice were vaccinated against human interleukin-18 using a technology allowing immunization with properly folded proteins. Prior to immunization, genetically modified mice were selected for major histocompatibility complexes supposedly sensitive to IL-18 surface area epitopes binding IL-18BP. Following immunization, B cells were isolated from spleen and hybridized following standard hybridoma technology. Hybridoma were sorted onto microplates and then tested for expression of monoclonal anti-IL-18 antibodies targeting IL-18 epitopes included in IL-18BP binding site. The screening was performed in 3 sequential and selective steps: […]

IL-18 [3] = target: T1, IL-18; test: KD of monoclonal antibodies by titration with a defined IL-18 molarity (EC50, Law of Mass Action); format: binding
Protocol: The respective KD values of each monoclonal antibody was calculated following titration of the antibodies with a defined IL-18 molarity and derived from the obtained EC50 values with the Law of Mass Action (see above).

B1: Antibody 132H4: monoclonal anti-IL-18 antibody; VH SEQ ID NO 23, VK SEQ ID NO 24 (antibody, V domains shown)
VH: EVKLVESGGGLVKPGGSLKLSCAASGFTFSNYAMSWVRQNPAKRLEWVATISSGGANIYYPDSVKGRFIISRDNARNTLYLQMSSLRSEDTAMYYCARGDYFNHFWFAYWGQGTLVTVSA
VL: DVLMTQTPLSLPVSLGDQASISCRSSQSIVHSNGNTYLEWYLQKPGQSPKFLIYKVSNRFSGVPDRFSGSGSGTDFTLKINRVEAEDLGIYYCFQGSHVPWTFGGGTKLEIK
modifications: Antibody 132H4 VH variable domain sequence; Antibody 132H4 VK variable domain sequence
Which results are given for B1?
IL-18BP binding on IL-18 previously complexed to monoclonal antibody, Fluorescence intensity (IL-18 [1]): 1 488; fluorescence signal after binding IL-18 in the presence of IL-18BP [2]: very low fluorescence signal; Monoclonal antibodies binding on IL-18, Fluorescence intensity (human interleukin-18): 23 839

B2: Antibody 107C6: monoclonal anti-IL-18 antibody; VH SEQ ID NO 9, VK SEQ ID NO 10 (antibody, V domains shown)
VH: QIQLVQSGPELKKPGETVKLSCRASGYTFTNYGMNWVKQAPGKGLKWMGWINTYSGVPTYADDFKGQFAFSLETSAATAFLQINNLKDEDTATYFCAREGYSTTRSMDYWGQGTSVTVSS
VL: DIVMSQSPSSLAVSAGEKVTMSCKSSQSLLDSRTRKNYLVWYQQKPGQSPKLLIYWASTRGSGVPDRFTGSGSGTDFTLTISSVQAEDLAVYYCKQSYNLRTFGGGTKLEIK
modifications: Antibody 107C6 VH variable domain sequence; Antibody 107C6 VK variable domain sequence
How did the “IL-18BP binding on IL-18 previously complexed to monoclonal antibody, Fluorescence intensity” value (“IL-18BP binding” for short) (IL-18 [1]) turn out when B2 was run?
The value was 1 389.

And the “fluorescence signal after binding IL-18 in the presence of IL-18BP” value (from here on “fluorescence signal”) [2]?
Its value is “very low fluorescence signal”.

What about the “Monoclonal antibodies binding on IL-18, Fluorescence intensity” value (from here on “Monoclonal antibodies binding”) (human interleukin-18) of the same molecule?
Its value is 26 250.

B3: Antibody 108F8: monoclonal anti-IL-18 antibody; VH SEQ ID NO 11, VK SEQ ID NO 12 (antibody, V domains shown)
VH: B2 VH with E10D, L11S
VL: B2 VL
modifications: Antibody 108F8 VH variable domain sequence; Antibody 108F8 VK variable domain sequence
For B3, which “IL-18BP binding” value (IL-18 [1]) is on record?
Its value is 1 292.

What about the “fluorescence signal” value [2] of the same molecule?
The value was “very low fluorescence signal”.

And the “Monoclonal antibodies binding” value (human interleukin-18)?
The value was 25 126.

B4: Antibody 109A6: monoclonal anti-IL-18 antibody; VH SEQ ID NO 13, VK SEQ ID NO 14 (antibody, V domains shown)
VH: EVQLQQSGAELVKPGASVKLSCTASGFKIKDTYIHWVIQRPAQGLEWIGRIDPANGNTIYGSKFQGKATLTADTSSNTAYIHLSSLTSGDSAVYYCAGYVWFAYWGQGTLVTVSA
VL: DVVMTQVPLSLPVSLGDQASISCRSSQRLVHSNGNTYLHWFLQKPGQSPKLLIYTVSNRFSGVPDRFSGSGSGTDFTLKISRVEAEDLGVYFCSQSTLVPWTFGGGTKLEIK
modifications: Antibody 109A6 VH variable domain sequence; Antibody 109A6 VK variable domain sequence
B4 was tested. Which “fluorescence signal” value [2] did it give?
The value was “very low fluorescence signal”.

And the “Monoclonal antibodies binding” value (human interleukin-18)?
Its value is 25 848.

B5: Antibody 131B4: monoclonal anti-IL-18 antibody; VH SEQ ID NO 18, 103 or 109, VK SEQ ID NO 19 (antibody, V domains shown)
VH: B4 VH with L4V, V37L, I38K, A42E, L70I, H82Q, S91T, Y95F
VL: DAVLTQTPLSLPVSLGDQASISCTSSQSLVHSNGNTYLHWYLQKPGQSPKLLIYKVSDRFSGVPDRFSGSGSGTDFTLMITRVEAEDLGVYFCSQSSLVPWTFGGGTKLEVK
B5 was tested. Which Kd (IL-18 [3]; mean of determinations, read-out: KD, Mean) did it give?
The Kd was 0.015 nM.

What about the Kd (IL-18 [3]; single determinations, read-out: KD) of the same molecule?
Its Kd is 0.02 nM and 0.01 nM.

What about the “IL-18BP binding” value (IL-18 [1]) of the same molecule?
The value was 1 656.

What about the “Column #3 Monoclonal antibody binding on IL-18 previously complexed to IL-18BP, Fluorescence intensity” value ([2]; Luminex beads linked to IL-18BP, complexed to IL-18) of the same molecule?
The value was 41.

And the “fluorescence signal” value [2]?
Its value is “very low fluorescence signal”.

And the “Monoclonal antibodies binding” value (human interleukin-18)?
The value was 24 838.
